Measured values taken from patent US20220033501A1 (SHANGHAI PHARMAEXPLORER, published 2022).

T1: murine TIM-3 protein with hFc tag (mTIM-3-hFc protein) (mouse; human, UniProt Q8VIM0 29-191)
T1 construct: Made in HEK293 cells; also called mouse TIM-3 extracellular domain protein; not shown: human IgG Fc fragment (hFc) of the pCpC vector
T1 chain: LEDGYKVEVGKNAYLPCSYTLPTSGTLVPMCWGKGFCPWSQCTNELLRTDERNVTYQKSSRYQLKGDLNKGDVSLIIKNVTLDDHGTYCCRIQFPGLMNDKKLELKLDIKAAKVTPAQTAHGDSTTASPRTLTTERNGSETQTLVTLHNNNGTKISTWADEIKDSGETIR

T2: human TIM-3 protein with hFc tag (hTIM-3-hFc protein) (human, UniProt Q8TDQ0 22-200)
T2 construct: also called immunogen 1; human TIM-3 extracellular domain protein; not shown: human IgG Fc fragment (hFc) of the pCpC vector
T2 sequence: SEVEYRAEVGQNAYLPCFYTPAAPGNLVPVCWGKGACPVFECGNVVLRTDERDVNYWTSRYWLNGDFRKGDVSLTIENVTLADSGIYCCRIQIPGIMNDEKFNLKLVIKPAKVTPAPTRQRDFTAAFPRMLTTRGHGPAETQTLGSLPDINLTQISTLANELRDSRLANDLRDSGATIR

T3: monkey TIM-3 protein with hFc tag (cTIM-3-hFc protein) (monkey; human)
T3 construct: Made in HEK293 cells; also called monkey TIM-3 extracellular domain protein; not shown: human IgG Fc fragment (hFc) of the pCpC vector
T3 chain: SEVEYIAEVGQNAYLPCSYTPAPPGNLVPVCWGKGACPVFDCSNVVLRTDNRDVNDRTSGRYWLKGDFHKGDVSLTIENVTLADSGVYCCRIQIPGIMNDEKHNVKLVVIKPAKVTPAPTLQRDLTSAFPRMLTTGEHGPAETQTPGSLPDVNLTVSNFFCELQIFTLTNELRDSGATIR

T4: monkey TIM-3 on CHOK1 stable cell line (CHOK1-cTIM-3) (monkey)
T4 chain: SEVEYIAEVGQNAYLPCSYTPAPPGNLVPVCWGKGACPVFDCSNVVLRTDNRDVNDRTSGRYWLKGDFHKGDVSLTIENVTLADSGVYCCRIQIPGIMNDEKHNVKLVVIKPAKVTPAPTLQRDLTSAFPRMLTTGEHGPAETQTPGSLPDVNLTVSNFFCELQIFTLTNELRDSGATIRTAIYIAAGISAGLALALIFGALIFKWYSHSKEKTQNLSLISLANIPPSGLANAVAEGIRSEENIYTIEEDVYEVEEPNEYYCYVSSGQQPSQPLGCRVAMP

T5: monkey TIM-3 extracellular domain protein with hFc tag (cTIM-3-hFc) (monkey)
T5 construct: not shown: human IgG Fc fragment (hFc) of the pCpC vector
T5 chain: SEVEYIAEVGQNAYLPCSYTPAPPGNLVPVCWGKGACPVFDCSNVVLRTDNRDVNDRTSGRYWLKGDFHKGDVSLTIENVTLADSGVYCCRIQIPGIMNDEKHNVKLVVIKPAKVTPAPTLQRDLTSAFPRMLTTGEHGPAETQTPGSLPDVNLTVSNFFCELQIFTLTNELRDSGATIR

T6: human TIM-3 extracellular domain protein with hFc tag (hTIM-3-hFc) (human, UniProt Q8TDQ0 22-200)
T6 construct: not shown: human IgG Fc fragment (hFc) of the pCpC vector
T6 sequence: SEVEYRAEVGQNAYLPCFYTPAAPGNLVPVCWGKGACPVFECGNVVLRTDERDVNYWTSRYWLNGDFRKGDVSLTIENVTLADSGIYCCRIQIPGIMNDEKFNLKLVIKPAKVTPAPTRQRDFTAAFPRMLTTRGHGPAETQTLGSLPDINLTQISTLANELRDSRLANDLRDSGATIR


Tests used:
[1] = target: T1, murine TIM-3 protein with hFc tag …; test: ELISA, coated mTIM-3-hFc; antibody 0 nM (blank)
Source text: (§1) The amino acid sequence 22-200 of the extracellular domain of the human TIM-3 protein described in the step of Example 1 (as shown in SEQ ID NO. 71 in the sequence listing) was cloned into a pCpC vector having a human IgG Fc fragment (hFc), and transfected into HEK293 cells. The cell culture medium was collected, and purified to obtain the human TIM-3 protein with hFc tag (herein referred to as hTIM-3-hFc protein). The amino acid sequence 22-201 of the extracellular domain of the monkey TIM-3 protein (as shown in SEQ ID NO. 72 in the sequence listing) was cloned into a pCpC vector having a human IgG Fc fragment (hFc), and transfected into HEK293 cells. The cell culture medium was collected, and purified to obtain the monkey TIM-3 protein with hFc tag (herein referred to as cTIM-3-hFc protein). […] The cell culture medium was collected, and purified to obtain the murine TIM-3 protein with hFc tag (herein referred to as mTIM-3-hFc protein). Purified human, monkey, and mouse TIM-3 extracellular domain proteins (hTIM-3-hFc, cTIM-3-hFc, and mTIM-3-hFc) were diluted with PBS to a final concentration of 1.0 μg/ml and then added to a 96-well ELISA plate with 100 μl per well. The plate was sealed with plastic film and incubated overnight at 4° C. The plate was washed 4 times with the plate washing solution (PBS+0.01% Tween20) on the next day, and added with the blocking solution (PBS+0.01% Tween20+1% BSA) and sealed at room temperature for 1-2 hours. The blocking solution was poured out. 50-100 μl of the antibody sample to be tested was added to each well. The plate was incubated at 37° C. for 1-2 hours, and washed 2-3 times with plate washing solution (PBS+0. 01% Tween20). HRP (horseradish peroxidase) labeled secondary antibody was added. The plate was incubated at 37° C. for 1-2 hours, and washed 2-3 times with plate washing solution (PBS+0. 01% Tween20). […] of TMB substrate was added to each well. After incubated at room temperature for 15-30 minutes, the plate was added with […] stop solution (1.0N HCl) to each well. An ELISA plate reader (TiterMax 384plus, Molecular Device) was used to read the A450 nm value.

[2] = target: T2, human TIM-3 protein with hFc tag …; test: ELISA, coated hTIM-3-hFc; antibody 0.0667 nM
Source text: as §1

[3] = target: T1, murine TIM-3 protein with hFc tag …; test: ELISA, coated mTIM-3-hFc; antibody 0.0667 nM
Source text: as §1

[4] = target: T3, monkey TIM-3 protein with hFc tag …; test: ELISA, coated cTIM-3-hFc; antibody 0.0007 nM
Source text: as §1

[5] = target: T4, monkey TIM-3 on CHOK1 stable cell line …; test: FACS, CHOK1-cTIM-3 cells, 40 nM antibody
[6] = target: T5, monkey TIM-3 extracellular domain …; test: ELISA, coated monkey TIM-3 ECD protein, 6.6667 nM antibody
[7] = target: T5, monkey TIM-3 extracellular domain …; test: ELISA, coated monkey TIM-3 ECD protein, 0 nM antibody
[8] = target: T6, human TIM-3 extracellular domain …; test: ELISA, coated human TIM-3 ECD protein, 6.6667 nM antibody
[9] = target: T5, monkey TIM-3 extracellular domain …; test: ELISA, coated monkey TIM-3 ECD protein, 0.0007 nM antibody

Binder | OD450 [1] | OD450 [2] | OD450 [3] | OD450 [4] | Mean fluorescence intensity [5] | OD450 [6] | OD450 [7] | OD450 [8] | OD450 [9]
7A4F10 fully human TIM-3 antibody (human IgG4, kappa) (antibody, V domains shown) VH: EVQLLESGGGLVQPGGSLRLSCAASGFTFRTHLISWVRQAPGKGLEWVAAITGSGGSTYYADSVKGRFIISRDNSKNTLFLQMNSLRAEDTAVYYCAKDGGSGSYDDFWGQGTLVTVSS VL: ETVLTQSPVTLSLSPGERATLSCRASQSVGSYLAWYQQKPGQAPRLLIYDASNRATGIPARFSGSGSGTDFTLTISSLEPEDFAVYYCQQRSNWPPTFGQGTKVEIK | – | – | – | – | 336 | 3.12 | 0.13 | 3.01 | 0.14
7A4F10 (TIM-3 antibody purified from hybridoma, chimeric antibody of Example 2) (antibody, V domains shown, From hybridoma of Harbour H2L2 transgenic mice: human variable regions, rat constant regions) VH: EVQLLESGGGLVQPGGSLRLSCAASGFTFRTHLISWVRQAPGKGLEWVAAITGSGGSTYYADSVKGRFIISRDNSKNTLFLQMNSLRAEDTAVYYCAKDGGSGSYDDFWGQGTLVTVSS VL: ETVLTQSPVTLSLSPGERATLSCRASQSVGSYLAWYQQKPGQAPRLLIYDASNRATGIPARFSGSGSGTDFTLTISSLEPEDFAVYYCQQRSNWPPTFGQGTKVEIK | 0.63 | 0.21 | 0.62 | 0.55 | – | – | – | – | –
215A8F2 fully human TIM-3 antibody (human IgG4, kappa) (antibody, V domains shown) VH: QVQLQQWGAGLLKPSETLSLTCTVYGGSFSGYYWNWIRQPPGKGLEWLGEINHSGSTNYNPSLKRRVTISVDTSKNQFSLKLSSVTAADTAVYYCARVYYYGPFDFWGQGTLVTVSS VL: not shown | – | – | – | – | 366 | 3.28 | 0.13 | 2.86 | 0.15
39E5H1 (TIM-3 antibody purified from hybridoma, chimeric antibody of Example 2) (antibody, V domains shown, From hybridoma of Harbour H2L2 transgenic mice: human variable regions, rat constant regions) VH: EVQLVESGGGLVQPGGSLRLSCAASGFTFSSYWMSWVRQAPGKGLEWVANIKRGGSERYYVDSVKGRFTISGDNAKNSVYLQMNSLRAEDTAVYYCARGSNWFDPWGQGTLVTVSS VL: ETVMTQSPAILSVSPGERATLSCRASQSVYSNLAWYQQKLGQAPRLLIYDASTRATGIPARFSGSGSGTEFTLTISSLQSEDFAVYYCQQYNNWPITFGQGTRLEIK | 0.62 | 1.78 | 0.68 | 0.61 | – | – | – | – | –
57F4E5 (TIM-3 antibody purified from hybridoma, chimeric antibody of Example 2) (antibody, V domains shown, From hybridoma of Harbour H2L2 transgenic mice: human variable regions, rat constant regions) VH: EVQLVESGGGLVQPGGSLRLSCAASGFTFSSYWMSWVRQAPGKGLEWVANIKQDGSEKYYVDSVKGRFTISRDSAKNSLYLQMNSLRAEDTAMYFCARDSNFFDYWGQGTLVTVSS VL: ETVMTQSPATLSVSPGERATLSCRASQSVSSNLAWYQRKPGQAPRLLIYFSSTRATGIPARFSGSGSGTEFTLTISSLQSEDFAVYYCQQYNNWPLTFGGGTKVEIK | 0.64 | 2.83 | 0.64 | 0.64 | – | – | – | – | –
18D2H2 (TIM-3 antibody purified from hybridoma, chimeric antibody of Example 2) (antibody, V domains shown, From hybridoma of Harbour H2L2 transgenic mice: human variable regions, rat constant regions) VH: EVQLVESGGDLVQPGGSLRLSCAASGFTFSTYWMTWVRQAPGRGLEWVANIKQDGSAKYYVDSVKGRFTLSRDDAKNSLYLQMNSLRAEDTAVYYCARGSNWFDYWGQGTLVTVSS VL: ETVMTQSPATLSVSPGERATLSCRANQNVYSNLAWYQQKPGQAPRLLIYDASTRATGFPARFSGSGSGTEFTLTISSLQSEDFAVYYCQQYNNWPLTFGGGTKVEIK | 0.62 | 0.35 | 0.67 | 0.54 | – | – | – | – | –
134H3G6 (TIM-3 antibody purified from hybridoma, chimeric antibody of Example 2) (antibody, V domains shown, From hybridoma of Harbour H2L2 transgenic mice: human variable regions, rat constant regions) VH: EVQLVESGGGLVQPGGSLRLSCAASGFTFSNSWMTWVRQAPGKGLEWVANIKQAGTEKYYVDSVKGRFTISRDNAKNSLYLQMNSLRAEDTAVYYCNSGSNYFDYWGQGTLVTVSS VL: EIVMTQSPATLSVSPGERATLSCRARQNFYSNLAWYQQKPGQAPRLLIYGASTRATGIPARFSGSGSGTEFTLTISSLQSEDFAVYYCQQYNNWPLTFGGGTKVEIK | 0.64 | 0.2 | 0.65 | 0.55 | – | – | – | – | –

Continued, values first:

OD450 [1] | OD450 [2] | OD450 [3] | OD450 [4] | Mean fluorescence intensity [5] | OD450 [6] | OD450 [7] | OD450 [8] | OD450 [9] | Binder
0.66 | 1.62 | 0.68 | 0.61 | – | – | – | – | – | 34B6D8 (TIM-3 antibody purified from hybridoma, chimeric antibody of Example 2) (antibody, V domains shown, From hybridoma of Harbour H2L2 transgenic mice: human variable regions, rat constant regions) VH: EVQLVESGGGLVQPGGSLRLSCAASGFTFSTYWMTWVRQAPGKRLEWVANIKQGGGDKYYVDSVKGRFTISTDNAKNSLYLQMNSLRAEDTAVYYCARGSNWFDPWGQGTLVTVSS VL: EIVMTQSPATLSMSPGERATLSCRASQSVYDNLAWYQQKPGQAPRLLIYGASTRATGIPARFSGSGSGTEFTLTISSLQSEDFALYYCQQYTHWPITFGQGTRLEIK
0.63 | 1 | 0.67 | 0.55 | – | – | – | – | – | 215A8F2 (TIM-3 antibody purified from hybridoma, chimeric antibody of Example 2) (antibody, V domains shown, From hybridoma of Harbour H2L2 transgenic mice: human variable regions, rat constant regions) VH: QVQLQQWGAGLLKPSETLSLTCTVYGGSFSGYYWNWIRQPPGKGLEWLGEINHSGSTNYNPSLKRRVTISVDTSKNQFSLKLSSVTAADTAVYYCARVYYYGPFDFWGQGTLVTVSS VL: not shown
– | – | – | – | 269 | 3.29 | 0.16 | 2.91 | 0.18 | 57F4E5 fully human TIM-3 antibody (human IgG4, kappa) (antibody, V domains shown) VH: EVQLVESGGGLVQPGGSLRLSCAASGFTFSSYWMSWVRQAPGKGLEWVANIKQDGSEKYYVDSVKGRFTISRDSAKNSLYLQMNSLRAEDTAMYFCARDSNFFDYWGQGTLVTVSS VL: ETVMTQSPATLSVSPGERATLSCRASQSVSSNLAWYQRKPGQAPRLLIYFSSTRATGIPARFSGSGSGTEFTLTISSLQSEDFAVYYCQQYNNWPLTFGGGTKVEIK
– | – | – | – | 376 | 3.19 | 0.13 | 2.81 | 0.15 | 134H3G6 fully human TIM-3 antibody (human IgG4, kappa) (antibody, V domains shown) VH: EVQLVESGGGLVQPGGSLRLSCAASGFTFSNSWMTWVRQAPGKGLEWVANIKQAGTEKYYVDSVKGRFTISRDNAKNSLYLQMNSLRAEDTAVYYCNSGSNYFDYWGQGTLVTVSS VL: EIVMTQSPATLSVSPGERATLSCRARQNFYSNLAWYQQKPGQAPRLLIYGASTRATGIPARFSGSGSGTEFTLTISSLQSEDFAVYYCQQYNNWPLTFGGGTKVEIK
